Reference: paper PMC10866649
“And” between values parts separate entries of the source, which are not always exact repeats. Equal entries are not always repeated.

Tests used:
[1] = molecular target: Human IgG1 Fc bearing the Abdeg mutations (efgartigimod) (human); assay: SPR + BLI; Fcs immobilised on chips or captured on biosensors; human or mouse FcRn at 1,600 nM to 50 nM in 2-fold dilutions, pH 6.0; Biacore 3000 and Octet K2 both named
[2] = molecular target: Human IgG1 Fc bearing the F241A mutation, produced in CHO-K1 cells coexpressing hST6GAL1 and hB4GALT1 (human); assay: as above
[3] = molecular target: Human IgG1 Fc bearing the Abdeg mutations (Fc^Abdeg, efgartigimod) (human); assay: SPR + BLI; Fc immobilised on chips / captured on biosensors; human or mouse FcRn at 1,600 nM to 50 nM in 2-fold dilutions, pH 6.0; Biacore 3000 and Octet K2 are both named
[4] = molecular target: Wild-type human IgG1 Fc (human); assay: SPR + BLI; Fcs immobilised on chips or captured on biosensors; human or mouse FcRn at 1,600 nM to 50 nM in 2-fold dilutions, pH 6.0; Biacore 3000 and Octet K2 both named
[5] = molecular target: Specific ICAM-3–grabbing non-integrin-related-1 (SIGN-R1; CD209b) (UniProt Q8CJ91); assay: flow cytometry on cells (SIGN-R1+/+ murine BMDMs); details: type I FcγRs blocked; PBS control = 1; read off a plot
Sequence of Specific ICAM-3–grabbing non-integrin-related-1 (SIGN-R1; CD209b) (Q8CJ91 whole entry): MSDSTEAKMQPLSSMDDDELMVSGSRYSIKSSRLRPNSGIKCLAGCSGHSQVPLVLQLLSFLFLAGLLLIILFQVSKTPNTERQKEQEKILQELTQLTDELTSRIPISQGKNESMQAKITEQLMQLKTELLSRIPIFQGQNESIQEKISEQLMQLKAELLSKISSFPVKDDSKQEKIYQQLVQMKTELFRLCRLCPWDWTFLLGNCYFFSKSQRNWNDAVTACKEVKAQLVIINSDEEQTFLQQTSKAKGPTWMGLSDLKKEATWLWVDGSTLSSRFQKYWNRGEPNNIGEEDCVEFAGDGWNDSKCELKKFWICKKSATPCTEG

Kd [1]	Kd [2]	fold lower KD than that of Fc^F241A/B4ST6 [3] [fold]	Substance	other results
6 nM	131 nM and 260 nM and 208 nM		Human neonatal Fc receptor (FcRn) (from UniProt P55899 24-297; P61769 21-119)	
		39	Human neonatal Fc receptor (hFcRn) (from UniProt P55899 24-297)	fold enhanced affinity compared with Fc^F241A and Fc^WT [3]: 96 fold
0.27 nM and 0.28 nM and 0.26 nM	50.8 nM and 77.5 nM and 86.7 nM		Mouse neonatal Fc receptor (FcRn) (from UniProt Q61559 22-297; P01887 21-119)	Kd [4]: 51.6 nM and 73.2 nM and 85.8 nM
		267	Mouse neonatal Fc receptor (mFcRn) (from UniProt Q61559 22-297)	fold enhanced affinity compared with human FcRn [3]: > 10 fold
			Wild-type human IgG1 Fc (Fc^WT) F241A	response (fold change in MFI (normalized to PBS)) [5]: 1.6
